Data reported in doi:10.1101/813527.
pKd: −log10 of the molar value.

Assays:
[1] = biological target: GFP-S14D S26D-SAP (phosphomimetic SAF-A SAP domain) (UniProt Q00839); assay: EMSA
[2] = biological target: GFP-WT-SAP (SAF-A SAP domain) (UniProt Q00839); assay: EMSA

Sequence “AATTCAGAAAATAATAAAATAAAACTAGCTATTTTATATTTTTTC (double strand) [AT-rich SAR DNA]” has a pKd [1] of under 4.12 and a pKd [2] of 4.78.
